Results on 6 molecules are retold here after patent US20120269817A1 (Bayer, published 2012).

Experiment [1] concerns the target T1, mouse tissue factor pathway inhibitor (TFPI) (mouse, UniProt O54819 29-289, limits assumed).
T1 construct: Bought protein; also called mouse TFPI; mTFPI
T1 sequence (looked up): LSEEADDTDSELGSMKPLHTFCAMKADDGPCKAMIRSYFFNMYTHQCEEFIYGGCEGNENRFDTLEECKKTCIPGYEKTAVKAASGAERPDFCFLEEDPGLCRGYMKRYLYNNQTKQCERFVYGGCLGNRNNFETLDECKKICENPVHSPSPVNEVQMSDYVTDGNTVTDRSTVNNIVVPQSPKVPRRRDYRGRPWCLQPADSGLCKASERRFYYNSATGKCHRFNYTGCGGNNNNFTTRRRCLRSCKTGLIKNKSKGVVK
Kind of experiment: ELISA, Fab on coated mouse TFPI. On the procedure:
To select antibody clones that bind to human TFPI, Fab genes of the phage clones from the second and third round of panning were subcloned into a bacterial expression vector and expressed in E. coli strain TG1. The bacterial lysate was added to the wells of the human TFPI-coated Maxisorp plates. After washing, HRP-conjugated goat anti-human Fab was used as a detection antibody and the plates were developed by adding AmplexRed (Invitrogen) with hydrogen peroxide. A signal of at least five-fold higher than the background was considered as positive. The cross reactivity of the anti-human TFPI antibodies to mouse TFPI was determined by a similar mouse TFPI-binding ELISA. The plates were coated with mouse TFPI (R&D System), BSA and lysozyme. The later two antigens were used as negative controls.

A further experiment concerns the target T2, BSA (bovine, UniProt P02769 25-607).
T2 construct: also called bovine serum albumin
As to the kind of experiment: ELISA. Put shortly: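 Fab from E. coli TG1 lysates bound to plates coated with human TFPI, or with mouse TFPI for cross-reactivity, with BSA and lysozyme as negative controls. Detection by HRP-anti-human Fab with AmplexRed/H2O2; signal ≥5-fold over background scored positive.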

In experiment [2] the target is T3, human tissue factor pathway inhibitor (TFPI) (human, UniProt P10646 29-304, limits assumed).
T3 sequence (looked up): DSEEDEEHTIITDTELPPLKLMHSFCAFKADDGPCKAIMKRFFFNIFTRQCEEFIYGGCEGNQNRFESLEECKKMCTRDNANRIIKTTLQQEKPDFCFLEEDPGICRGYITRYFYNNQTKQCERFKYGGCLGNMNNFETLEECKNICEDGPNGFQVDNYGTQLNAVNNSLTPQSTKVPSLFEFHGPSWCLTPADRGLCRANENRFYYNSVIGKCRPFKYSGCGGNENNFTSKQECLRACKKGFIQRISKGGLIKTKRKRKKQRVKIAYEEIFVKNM
As to the kind of experiment: cell-based or functional assay.

The target of experiment [3] is T3, human tissue factor pathway inhibitor …. As to the kind of experiment: ELISA, Fab on coated TFPI. Put shortly: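 Purified Fabs titrated on human or mouse TFPI-coated plates; bound Fab detected with HRP anti-human Fab and AmplexRed/H2O2 to derive EC50. Affinity and kinetics by Biacore: TFPI amine-coupled on CM5 (~300 RU), Fabs in mobile phase at 0.1, 0.4, 1.6, 6.4 and 25 nM.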

Experiment [4] has the same target. As to the kind of experiment: Biacore, TFPI on CM5 chip, Fab in mobile phase. Put shortly: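 Surface plasmon resonance with human or mouse TFPI amine-coupled to a CM5 chip at approximately 300 RU. Purified Fabs were injected in mobile phase at 0.1, 0.4, 1.6, 6.4 and 25 nM. Kinetics and binding affinity were derived from the sensorgrams.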
The target in experiment [5] is T1, mouse tissue factor pathway inhibitor …. Kind of experiment: ELISA, IgG against Fab.
The target of experiment [6] is T3, human tissue factor pathway inhibitor …. As to the kind of experiment: ELISA, IgG against Fab.
The target in experiment [7] is T1, mouse tissue factor pathway inhibitor …. Kind of experiment: ELISA, IgG on coated mouse TFPI.
Experiment [8] deals with T3, human tissue factor pathway inhibitor …. As to the kind of experiment: ELISA, IgG on coated human TFPI.
The target of the next experiment is T4, human TFPI K1 (human, UniProt P10646 29-107, limits assumed).
T4 construct: domain: K1; also called Kunitz domain 1
T4 sequence (looked up): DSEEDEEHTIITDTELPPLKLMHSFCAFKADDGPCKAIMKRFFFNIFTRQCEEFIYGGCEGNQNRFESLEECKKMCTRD
Kind of experiment: Western blots and ELISA. The procedure: Western blots and ELISA were used to determine which domain(s) of TFPI of the inhibitory antibodies bind. Recombinant full length human TFPI or TFPI domains were used for these studies. ELISA was similar to Example 3. In the Western Blot, human TFPI or domains were run on 4-12% Bis-Tris SDS PAGE running buffer MES (Invitrogen, Carlsbad, Calif.) and then transferred to cellulose membrane. After incubation with inhibitory antibodies for 10 min, the membrane was washed three times using SNAPid system (Millipore, Billerica, Mass.). A HRP conjugated donkey anti-mouse antibody (Pierce, Rockford, Ill.) at 1 to 10,000 dilution was incubated with the membrane for 10 min. After a similar wash step, the membrane was developed using SuperSignal substrate (Pierce, Rockford, Ill.). Whereas the control anti-Kunitz domain 1 antibody binds to full length TFPI, truncated TFPI and domains, inhibitory anti-TFPI antibodies only bind to TFPI containing Kunitz domain 2.

T2 sequence (P02769 25-607 limits assumed): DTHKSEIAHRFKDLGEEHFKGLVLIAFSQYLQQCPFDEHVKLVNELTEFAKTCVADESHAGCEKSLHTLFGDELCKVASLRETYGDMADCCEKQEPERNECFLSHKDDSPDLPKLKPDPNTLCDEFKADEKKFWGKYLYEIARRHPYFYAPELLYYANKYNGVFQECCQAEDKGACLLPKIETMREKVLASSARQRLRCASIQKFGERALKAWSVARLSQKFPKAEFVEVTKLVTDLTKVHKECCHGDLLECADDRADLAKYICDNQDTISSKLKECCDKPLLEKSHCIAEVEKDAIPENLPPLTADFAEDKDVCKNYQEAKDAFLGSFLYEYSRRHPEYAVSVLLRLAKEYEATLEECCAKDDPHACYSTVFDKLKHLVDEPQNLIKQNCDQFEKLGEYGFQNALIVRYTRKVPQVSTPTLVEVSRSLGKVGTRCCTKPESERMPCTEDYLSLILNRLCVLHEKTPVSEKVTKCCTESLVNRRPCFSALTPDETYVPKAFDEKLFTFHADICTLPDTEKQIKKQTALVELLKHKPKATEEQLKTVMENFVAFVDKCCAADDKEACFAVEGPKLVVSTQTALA

B1: TP-4H8 Fab (Fab, V domains shown)
VH: QVQLVESGGGLVQPGGSLRLSCAASGFTFSDHAMHWVRQAPGKGLEWVSVIEYSGSKTNYADSVKGRFTISRDNSKNTLYLQMNSLRAEDTAVYYCARGDYYPYLVFAIWGQGTLVTVSS
VL: DIELTQPPSVSVAPGQTARISCSGDSIGKKYVHWYQQKPGQAPVLVIYGDNNRPSGIPERFSGSNSGNTATLTISGTQAEDEADYYCSTADSVITYKNVFGGGTKLTVLG
notes: Human Fab from HuCal Gold, expressed in E. coli TG1
For B1, the binding result in experiment [1] was “no binding”. The binding result in the experiment with BSA is reported as “no binding”. In [2], the “% inhibition of hTFPI activity” value was 28% and the “dPT in hemoA plasma” value is 76.5 s. Moreover, the EC50 in experiment [3] came out at 0.0725 µM. This molecule also yielded a Kd in [4] of 0.0322 µM.

B2: 2G6-IgG (antibody, V domains shown)
VH: QVQLQQSGPGLVKPSQTLSLTCAISGDSVSSSSAAWSWIRQSPGRGLEWLGIIYYRSKWYNDYAVSVKSRITINPDTSKNQFSLQLNSVTPEDTAVYYCARHSMVGFDVWGQGTLVTVSS
VL: DIVLTQSPATLSLSPGERATLSCRASQYVTSSYLAWYQQKPGQAPRLLIYGSSRATGVPARFSGSGSGTDFTLTISSLEPEDFATYYCQQYSSSPITFGQGTKVEIKR
notes: Chimeric IgG: human variable regions on mouse constant regions, murine IgG1 isotype, made in HKB11 cells; also called IgG-2G6; TP-2G6 chimeric IgG
Consider B2, for which the “fold change of EC50 against 2G6-Fab” value is 10 fold in experiment [5] and 2 fold in experiment [6]. The EC50 in experiment [7] is 0.00051 µM; in experiment [8], 0.00022 µM. Further, the binding result with human TFPI K1 is listed as “no binding”.

B3: TP-4E8 Fab (Fab, V domains shown)
VH: QVQLVESGGGLVQPGGSLRLSCAASGFTFNDYAMSWVRQAPGKGLEWVSLIESVSSSTYYADSVKGRFTISRDNSKNTLYLQMNSLRAEDTAVYYCARTIGVLWDDVWGQGTLVTVSS
VL: DIELTQPPSVSVAPGQTARISCSGDALGSKYVSWYQQKPGQAPVLVIYGDNKRPSGIPERFSGSNSGNTATLTISGTQAEDEADYYCQSYTYSLNQVFGGGTKLTVLG
notes: as for B1
As for B3, the binding result (in experiment [1]; with BSA) was “no binding” each time. Further, the “% inhibition of hTFPI activity” value in experiment [2] is 29%. The “dPT in hemoA plasma” value in [2] stood at 71.9 s. The molecule further showed a 50% effective concentration (EC50) in experiment [3] of 0.0369 µM. For the same molecule, the Kd in [4] is 0.0359 µM.

B4: TP-2C1 Fab (Fab, V domains shown)
VH: QVQLVESGGGLVQPGGSLRLSCAASGFTFSPYVMSWVRQAPGKGLEWVSSISSSSSNTYYADSVKGRFTISRDNSKNTLYLQMNSLRAEDTAVYYCARGDSYMYDVWGQGTLVTVSS
VL: DIELTQPPSVSVAPGQTARISCSGDSIGSYYAHWYQQKPGQAPVLVIYYDSKRPSGIPERFSGSNSGNTATLTISGTQAEDEADYYCQAYTGQSISRVFGGGTKLTVLG
notes: as for B1
Turning to B4, the binding result in [1] was “no binding”. In addition, the binding result with BSA is listed as “no binding”. For the same molecule, in experiment [2], the “% inhibition of hTFPI activity” value was determined as 21% and the “dPT in hemoA plasma” value was determined as 70.9 s. For the same molecule, the EC50 in [3] stood at 0.0004 µM. In addition, the Kd in experiment [4] worked out at 0.00264 µM.

B5: TP-4G8 Fab (Fab, V domains shown)
VH: QVQLVESGGGLVQPGGSLRLSCAASGFTFSTYAMHWVRQAPGKGLEWVSTISGYGSFTYYADSVKGRFTISRDNSKNTLYLQMNSLRAEDTAVYYCARNGRKYGQMDNWGQGTLVTVSS
VL: DIELTQPPSVSVAPGQTARISCSGDKLGSKSVHWYQQKPGQAPVLVIYRDTDRPSGIPERFSGSNSGNTATLTISGTQAEDEADYYCQTYDYILNVFGGGTKLTVLG
notes: as for B1
Take B5: the binding result in [1] was “no binding”. The binding result with BSA is reported as “no binding”. Further, in experiment [2], the “% inhibition of hTFPI activity” value came to 39% and the “dPT in hemoA plasma” value was 73.9 s. The molecule also displayed an EC50 in experiment [3] of 0.847 µM. For the same molecule, the Kd in [4] turned out to be 0.0252 µM.

B6: TP-2G7 Fab (Fab, V domains shown)
VH: QVQLVESGGGLVQPGGSLRLSCAASGFTFNSYAMSWVRQAPGKGLEWVSNISSNSSNTYYADSVKGRFTISRDNSKNTLYLQMNSLRAEDTAVYYCARKGGGEHGFFPSDIWGQGTLVTVSS
VL: DIELTQPPSVSVAPGQTARISCSGDNLGTYYVHWYQQKPGQAPVLVIYGDNNRPSGIPERFSGSNSGNTATLTISGTQAEDEADYYCQTYDSNNESIVFGGGTKLTVLG
notes: as for B1
B6: in experiment [1], the binding result is “no binding”. Moreover, the binding result with BSA is reported as “no binding”. Moreover, in experiment [2], the “% inhibition of hTFPI activity” value was 55% and the “dPT in hemoA plasma” value turned out to be 72.2 s. For the same molecule, the EC50 in experiment [3] was found to be 0.0235 µM. Further, the affinity in experiment [4], expressed as Kd, was 0.0269 µM.
